Measurements published in publication PMC2885425, “Complete Phenotypic Recovery of an Alzheimer's Disease Model by a Quinone-Tryptophan Hybrid Aggregation Inhibitor” (PLoS ONE, 2010).

Columns and labels:
[1] = target: Arctic (Arc) (E22G) mutant form of Aβ1–42 (human); assay: immunoprecipitation with antibody 6E10 and western blot of SDS-stable oligomers; head extracts (PBS, protease inhibitor, 1% SDS) of 6 day old Aβarc1-42-expressing flies on regular food; samples boiled
[2] = target: T1, β-amyloid polypeptide (Aβ1–42) (Homo sapiens, UniProt P05067); assay: fluorescence anisotropy titration (Aβ[…] early assemblies); supported by 1H-NMR shift perturbation with Aβ[…] and ThT fibril inhibition (IC50 […]); format: binding
T1 construct: gene APP; Aβ1–42 (synthetic, early oligomeric assemblies); NMR with Aβ12–28
T1 sequence (P05067 672-713): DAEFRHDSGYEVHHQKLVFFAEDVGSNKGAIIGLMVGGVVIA

| stoichiometry N [1] | Kd [2] [nM] | Compound |
| --- | --- | --- |
| 4 |  | Arctic (Arc) (E22G) mutant form of Aβ1–42 (peptide) |
|  | ~90 | O=C1C=C(N[C@@H](Cc2c[nH]c3ccccc23)C(=O)O)C(=O)c2ccccc21 [IL, 1,4-naphthoquinon-2-yl-L-tryptophan] |
